Laboratory results: article doi:10.1101/2024.08.08.607148 (bioRxiv, 2024)

How the values were obtained:
Test in all cases: ELISA
[1] = target: T1, variable region of RIFIN#1 (PF3D7_1254800, 165-274 aa) (P. falciparum, UniProt Q8I4N9)
[2] = target: T1, variable region of RIFIN#1 …; remark: listed apart in the source
[3] = target: extracellular domain (ECD) of human LILRB1 (human, UniProt Q8NHL6 24-461, biotin (NHS-pEG12-biotin) in the competition ELISA)
extracellular domain (ECD) of human LILRB1, sequence (Q8NHL6 24-461): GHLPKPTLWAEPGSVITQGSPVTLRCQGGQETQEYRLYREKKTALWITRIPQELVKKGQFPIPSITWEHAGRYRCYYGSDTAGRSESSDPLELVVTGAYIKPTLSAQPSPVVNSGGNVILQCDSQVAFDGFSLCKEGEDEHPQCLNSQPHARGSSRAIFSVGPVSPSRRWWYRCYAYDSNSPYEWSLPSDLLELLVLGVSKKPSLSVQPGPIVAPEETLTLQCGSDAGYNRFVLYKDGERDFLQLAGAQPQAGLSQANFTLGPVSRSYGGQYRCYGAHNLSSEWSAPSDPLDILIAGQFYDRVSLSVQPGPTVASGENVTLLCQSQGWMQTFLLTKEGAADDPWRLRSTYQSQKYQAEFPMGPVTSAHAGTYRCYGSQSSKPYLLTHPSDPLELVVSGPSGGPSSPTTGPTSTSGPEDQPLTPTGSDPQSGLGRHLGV

Binder	IC50 [1] [nM]	Kd [2] [nM]	Kd [3] [nM]
D1D2.v-IgG (LILRB1 D1D2.v-containing antibody on the MDB1 scaffold) (antibody, V domains shown) VH: QITLKESGPTLVERTQTLTLTCTFSGFSLTTDGLGVGWIRQPPGKALEWLALIYYDDVRRYRPSLKSRLTITKDTSKNRVVLTVTDMDPVDAGTYFCVHASLFNLGSRNVYFRYWGQGTLVSVSS VL: SYDLTQPPSVSVSPGQTARITCSGDSLARQFASWYQQKPGQSPVLLIYKNIERLSAIPERFSGSTSGTSVTLTISGVQAEDEADYFCQSADDSGSYSLFGTGTRVSVL	20	6	–
variable region of RIFIN#1 (PF3D7_1254800, 165-274 aa) (domain or fragment, P. falciparum, UniProt Q8I4N9 165-274, looked up) NYETINAFIAKTIEELEGIPGITKLFGAKISQFVTPAVFRKPMSLVETILSEKKKLCLCAANKNELLCRGMNPNVPETLPKKIEVAVNEVLSSVNDTWATATTPTTFFTN	–	–	~650
